{"source": "patent CN114349855A", "about": "(BAISIS MEDICAL DIAGNOSIS SCIENCE AND TECH BEIJING LIMITED …, dated 2022)", "data": [{"biological_target": "T1, 新型冠状病毒野生型Spike蛋白 (新型冠状病毒 (SARS-CoV-2) 野生型, UniProt P0DTC2 16-1213)", "T1 construct": "also called 野生型S蛋白", "test": "ELISA, S protein coated at 2 μg/mL", "values": [{"binder": "抗体 克隆号9A5F6 23F1 (antibody, V domains shown) VH: QVQLVESGGGVVQPGRSLRLSCAASGFTFSSYAMYWVRQAPGKGLECVAGISYDGSNKYYADSVKGRFTISRENSKNTLYLQMNSLISEDTAVYYCARAEWDYWGQGTLVTVSS VL: SYELTQPSSVSVSPGQTARITCSGDVLAKKYARWFQQKPGQAPVLVIYKDSERPSGIPERFSGSSSGTTVTLTISGAQVEDEADYYCYSAADNNLGVFGGGTKL", "binding result": "no binding (tested: 1 μg/mL)"}, {"binder": "抗体 克隆号9A5D9 22G3 (antibody, V domains shown) VH: EVQLVESGGGLVKPGGSLRLSCAASGFTFSSYSMNWVRQAPGKGLEWVSSISRSSSYIYYADSVMGRFTISRDNAKNSLYLQMNSLRADDTAVYYCARDRGSGNYYVDGLDIWGQGTMVTVSS VL: not shown", "binding result": "no binding (tested: 1 μg/mL)"}, {"binder": "抗体 克隆号7D7G3D4 (antibody, V domains shown) VH: EVQLVESGGGLVQPGGSLRLSCAASGLTVSSNHMSWVRQAPGKGLEWVSIIYSGGSTYYADSVKGRFTISRDNSKNTLYLQMDSLRAEDTTVYYCARAQGGWELPGAGYYYFNGMDFWGQGTTVTVSS VL: DIQMTQSPSSLSASVGDRVTITCRASQSISTYLNWYQQKPGKAPKLLIYAASNLQSGVPSRFSGSASGTDFTLTISSLQPEDFATYFCQQSYSTSFTFGPGTKVDIK", "binding result": "no binding (tested: 1 μg/mL)"}]}]}
